# From publication PMC12316982 (Nature Communications, 2025)
# Molecular target: stabilized neuraminidase protein (sNAp) of A/Vietnam/1203/2004 (VN04, H5N1) (Influenza A virus A/Vietnam/1203/2004 …, UniProt Q6DPL2, stabilised)
# Assay: ELISA
# Details: both partners purified
row,Binder,binding result
1,"NCS.1.3 (human IgG1) (antibody, V domains shown) VH: QVQLQESGPRLVKPSETLSLTCSVSGESISSGGYYWTWIRQHPGKGLEWIGNIFDTGSTDYSPSLKTRLTISIDTSKNQFYLRLTSATAADTAVYYCARVGFSLETDRPYYLGLDVWGQGTTVTVSS VL: DIVMTQSPLTLPVTPGEPASISCRSSQSLLHSNGYTYLDWYLQKPGQSPQLLIYFASNRASGVPDRFSGSGSGTYFTLKISRVEAEDVGVYYCMQAVQSPWTFGQGTKVEIK",binds
2,"NCS.1 (human IgG1) (antibody, V domains shown) VH: QVQLPESGPRLVKPSETLSLTCSVSGESISSGGYYWTWIRQHPGKGLEWIGNIFDTGSTHYSPSLKTRLTISIDTSKNQFYLRLNSATAADTAVYYCARVGYSLETDRPYYFGLDVWGQGTTVTVSS VL: DIVMTQSPLSLPVTPGEPASISCRSSQSLLHSNGYTYLDWYLQKPGQSPQLLIYLASNRASGVPDRFSGSGSGTYFTLKISRVEAEDVGVYYCMQAVQTPWTFGQGTKVEIK",binds
3,"NCS.1.1 (human IgG1) (antibody, V domains shown) VH: QVQLQESGPRLVKPSETLSLTCSVSGESISSGGYYWTWIRQHPGKGLEWIGNIFDTGSTDYSPSLKTRLTISIDTSKNQFYLRLNSATAADTAVYYCARVGFSLETDRPYYLGLDVWGQGTTVTVSS VL: DIVMTQSPLSLPVTPGEPASISCRSSQSLLHSNGYTYLDWYLQKPGQSPQLLISFTSNRASGVPDRFSGSGSGTYFTLKISRVEAEDVGVYYCMQAVQTPWTFGQGTKVEIK",binds
